# Measurements published in patent US6376240.
# Columns and labels:
# [1] = tested on: recombinant His6-RFLAT-1 (C-terminal portion of RFLAT-1, amino acids 59-288)
# [2] = molecular target: RFLAT-1 full length (homo sapien) (UniProt Q9Y2Y9); assay: cell_activity; conditions: Jurkat T cells
# Chain of RFLAT-1 full length (homo sapien) (Q9Y2Y9 other isoform, or with tags, fused parts or gaps): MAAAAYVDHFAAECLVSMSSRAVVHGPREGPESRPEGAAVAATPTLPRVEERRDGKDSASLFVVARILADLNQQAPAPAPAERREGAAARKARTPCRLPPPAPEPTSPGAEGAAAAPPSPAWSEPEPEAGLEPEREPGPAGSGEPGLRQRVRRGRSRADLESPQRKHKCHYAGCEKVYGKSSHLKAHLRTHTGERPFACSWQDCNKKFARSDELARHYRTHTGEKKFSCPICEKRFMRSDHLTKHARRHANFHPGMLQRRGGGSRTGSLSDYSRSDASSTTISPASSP
# Chain of recombinant His6-RFLAT-1 (C-terminal portion of RFLAT-1, amino acids 59-288) (chain, as listed by the source): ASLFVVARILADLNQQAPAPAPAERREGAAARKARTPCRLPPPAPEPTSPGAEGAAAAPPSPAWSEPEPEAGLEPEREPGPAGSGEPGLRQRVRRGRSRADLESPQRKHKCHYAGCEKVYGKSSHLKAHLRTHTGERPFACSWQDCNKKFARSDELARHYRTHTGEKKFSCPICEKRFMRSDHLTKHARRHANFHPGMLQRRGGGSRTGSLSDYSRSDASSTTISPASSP
substance,measurement,setting,value
NILK,phosphorylation of recombinant RFLAT-1 by immunoprecipitated kinase,[1],the immunoprecipitated NILK from activated PBLs phosphorylates recombinant RFLAT-1
RANTES promoter pGL2-R-luciferase,activity (fold induction),[2]; about 5 fold in NIH3T3,10
three A/B sites luciferase reporter,activity (fold induction),[2]; similar degree of induction,10
